Measured values from article doi:10.1101/738153.

Tests used:
[1] = molecular target: TbBILBO1-NTD Y64A (Trypanosoma brucei); assay: ITC
[2] = molecular target: TbBILBO1 N-terminal domain (TbBILBO1-NTD), wild type, residues 1-120 (Trypanosoma brucei); assay: ITC

TbFPC4 C-terminal domain (TbFPC4-CTD), residues 357-404 (domain or fragment)
fold reduction of binding affinity against wild type [1]: 2.5 fold | Kd [2]: 5 µM
